Experimental data from patent US20010016194A1 (priority 1999, published 2001).
Each block holds one molecule with its values, some of them ahead of it.

What was measured:
[1] = tested on: T-cell derived, active serine/threonine kinase; experiment: Protein kinase reaction on anti-FLAG beads coated with FLAG-HMK-IL-2Rβ chain proteins and exposed to T-cell lysates; type: biochemical, human; details: for level of (His)6-Mek-1 kinase phosphorylation: kinase defective (His)6-Mek-1 as substrate; for serine/threonine kinase activity, phosphorylation of p70 protein: no exogenously added substrate
Excerpt: FLAG-HMK-IL-2Rβ chain wild type and deletional mutants lacking certain defined domains of the IL-2Rβ chain (see Examples 1 and 2 and FIG. 1) were used to identify IL-2Rβ chain domain involved in binding T-cell derived, active serine/threonine kinase. Assay conditions were similar to those noted above. […] FLAG-HMK- fusion proteins coated beads were further used as affinity reagents to absorb proteins present in T-cell lysates. T-cell derived proteins bound to FLAG-MHK fusion proteins were then tested for serine/threonine kinase activity in the absence or presence of exogenous substrates: Histone H-1 or (His),-Mek-1. Products of kinase reactions were boiled in SDS-PAGE sample buffer followed by separation on SDS-PAGE, transfer onto Immobilon membrane and autoradiography. The following are the experiments that were carried out and their results: […]

[2] = biological target: T1, Raf-1 proteins present in T-cell lysates (Homo sapiens, UniProt P04049); experiment: Cell-free system: binding of Raf-1 from T-cell lysates to FLAG-HMK-IL-2Rβ chain fusion proteins on anti-FLAG beads, anti-Raf-1 immunoblot; parameters: decrease of Raf-1 binding in comparison to WT control: unit not given here; details: T-cell lysates, anti-Raf-1 immunoblot; for binding of T-cell derived Raf-1 proteins: affinity beads coated with fusion protein
T1 construct: endogenous in cells; host or cells: PHA-stimulated human peripheral blood mononuclear cells (T cells), lysate
Excerpt: (ii) In order to study the interaction of IL-2Rβ chain with intracellular molecules, the FLAG-HMK-IL-2Rβ chain cytoplasmic domain fusion protein was purified from bacterial lysate using the M2 anti-FLAG monoclonal antibody in a standard affinity chromatography procedure. More specifically, bacterial lysate proteins were absorbed onto anti-FLAG (M2) affinity column (IBI-Kodak, New Haven, Conn., USA). After washing the column, the adsorbed proteins were eluted with either glycine buffer (pH 3) or FLAG peptide (10^−4M). Proteins in various fractions were analyzed for expected size (about 33 kDa) and purity after separation on SDS-PAGE and Commassie blue staining. The presence of a functional HMK recognition site was confirmed by phosphorylation of the purified 33 kDa IL-2Rβ chain fusion protein by HMK. More specifically, the eluted fusion proteins were tested for susceptibility to phosphorylation by incubation with the catalytic subunit of bovine heart muscle kinase (Sigma) (1 U/ul) in buffer containing 20 mM Tric-HCl, pH 7.5, 1 mM DTT, 100 mM NaCl, 10 mM MgCl2 and 1μCi [γ^32p] ATP for 30 min at 37° C. followed by SDS-PAGE and autoradiography. Purified FLAG-HMK-IL-2Rβ chain fusion proteins were used as an affinity reagent to probe for cytosolic proteins present in lysates of human T cells, metabolically labeled with [^35S ]-methionine, that bind to the IL-2Rβ chain. […] For [^35S]-methionine labeling, the cells were suspended at 4×10^7 cells/ml at 37° C. followed by addition of 0.5 mCi of [^35S]-methionine for 4 hours prior to lysis in Dounce homogenization buffer and application of the lysate to the affinity column. Several [^35S]-labeled proteins were retained by the FLAG-HMK-IL-2Rβ chain cytosolic domain fusion protein bound to the affinity column. One of these proteins was identified as Raf-1 by immunoblotting using a polyclonal antibody specific for the SP-63 peptide which corresponds to the C-terminal fragment of Raf-1. A molar excess of the competing SP-63 peptide blocked binding of the anti-SP-63 antibody to Raf-1.
Using the basic cell-free system described above, a number of FLAG-HMK-IL-2Rβ chain wild type FLAG-HMK-IL2Rβ chain deletion mutant proteins were then studied with respect to this specific interaction with Raf-i proteins present in T-cell lysates. These FLAG-HMK-IL2Rβ chain wild type (WT) and deletion mutants lacking certain defined domains of the IL-2Rβ chain were used to identify the IL-2Rβ chain domain involved in Raf-1 binding. Assay conditions were similar to those described above. […] In FIG. 1, there is shown, schematically, all of the constructs, i.e., FLAG-HMK-IL-2Rβ chain fusion proteins produced in transformed bacterial cells and used in this study. These FLAG-HMK- fusion proteins-coated beads were then used as affinity reagents to absorb Raf-1 proteins present in T-cell lysates. T-cell derived proteins bound to FLAG-HMK fusion proteins were then eluted using buffer containing FLAG peptide, separated on SDS-PAGE, transferred onto Immobilon membrane and blotted with anti-Raf-1 antibody.
The absorbed proteins were washed, eluted with FLAG peptide and probed for the presence of Raf-1 and 14-3-3 proteins on immunoblots. […] Washed cells (about 4×10^7) were lysed in Dounce homogenization buffer, centrifuged (15×10^3 xg for 15 min.) and supernatants applied onto washed anti-FLAG (M2) affinity column (IBI-Kodak) coated with bacterial lysates interacted with one of the FLAG-HMK fusion proteins. […]

(His)6-Raf-1 [3] = biological target: T2, (His)6-Raf-1 (Homo sapiens, UniProt P04049); experiment: Totally cell-free system: binding of bacterially produced (His)6-Raf-1 to FLAG-HMK-IL-2Rβ chain fusion proteins, anti-Raf-1 immunoblot; details: for amount of Raf-1 proteins bound, % of the positive control value (Raf-1 binding to FLAG-HMK-IL-2Rβ chain WT): estimated using Hewlett Packard ScanJet
T2 construct: made in house; host or cells: M15 bacteria (E. coli), pQE-30
Procedure: For the construction of the (His)6-Raf-1 expression plasmid, PCR was performed using the […] cDNA as template and oligonucleotide primers designed to facilitate cloning into the pQE-30 plasmid according to the manufacturer's protocol (QIAGEN, QIAexpressionist; Chatsworth, CA). (His)6-Raf-1 protein was produced in M15 bacteria by IPTG induction, and purified on Ni-NTA resin (QIAGEN). Affinity purification yielded a 72-74 kD protein which was recognized by anti Raf-1 antibody.
Accordingly, in this totally cell-free assay, FLAG-HMK-IL-2Rβ chain wild type and deletion mutants lacking at least one of several defined domains of the IL-2Rβ chain (see Example 1) were used to identify the IL-2Rβ chain domain involved in Raf-1 binding. Assay conditions were similar to those described in Example 1. Briefly, bacterially produced proteins: FLAG-HMK-IL-2Rβ chain wild type (WT), FLAG-HMK-IL-2Rβ chain containing only proline rich C-terminal (CT^+), FLAG-HMK-IL-2Rβ chain mutants lacking:serine rich region (S^−), acidic domain (A^−), acidic domain and proline rich C-terminal (A^−CT^−) were incubated with bacterially produced (His)6-Raf-1 (for all constructs see FIG. 1) followed by adsorption of FLAG-HMK-IL-2Rβ chain/Raf-1 complexes on anti-FLAG affinity beads. After extensive washing, IL-2Rβ chain/Raf-1 complexes were competitively eluted from anti-FLAG beads using buffer containing FLAG peptide. Eluted proteins were separated on SDS-PAGE, transferred onto Immobilon membrane and blotted with anti-Raf-1 antibody.

(His)6-Raf-1 [4] = biological target: T2, (His)6-Raf-1; experiment: Kinase activity toward Mek-1 after interaction of FLAG-HMK-IL-2Rβ chain with bacterially produced (His)6-Raf-1; type: biochemical; details: interaction with (His)6-Raf-1; enzymatically inactive (His)6-Mek-1 substrate
Procedure: Bacterial lysates containing FLAG-HMK-IL-2Rβ chain wild type and (His)6-Raf-1 proteins were used (see Example 2) to test the hypothesis that the IL-2Rβ chain induces catalytic activity of Raf-1. Assay conditions were similar to those described above. Briefly, bacterially produced proteins: FLAG-HMK-IL-2Rβ chain wild type (WT) or FLAG-HMK (negative control) (for all constructs see FIG. 1) were incubated with bacterial lysates containing either (His)6-Raf-1 or (His)6 (negative control) followed by the absorption of protein complexes on anti-FLAG affinity beads. […] Products of kinase reactions were boiled in SDS-PAGE sample buffer followed by separation on SDS-PAGE, transfer onto Immobilon membrane and autoradiography.

binding of T-cell derived Raf-1 proteins [2]: no binding
amount of Raf-1 proteins bound, % of the positive control value (Raf-1 binding to FLAG-HMK-IL-2Rβ chain WT) ((His)6-Raf-1 [3]): 0%
B1: mutant A^−CT^−: FLAG-HMK-IL-2Rβ chain mutant lacking both acidic domain and proline rich C-terminal (protein)
chain: NCRNTGPWLKKVLKCNTPDPSKFFSQLSSEHGGDVQKWLSSPFPSSSFSPGGLAPEISPLEVLERDKVTQLLL
modifications: left off: small tags and cut ends
notes: FLAG-HMK-IL-2Rβ chain mutant lacking both acidic domain and proline rich C-terminal
level of (His)6-Mek-1 kinase phosphorylation [1]: Background levels
serine/threonine kinase activity, phosphorylation of p70 protein [1]: no phosphorylated band p70

binding of T-cell derived Raf-1 proteins [2]: no binding
amount of Raf-1 proteins bound, % of the positive control value (Raf-1 binding to FLAG-HMK-IL-2Rβ chain WT) ((His)6-Raf-1 [3]): 0%-10%
B2: FLAG-HMK-IL-2Rβ chain CT^+: FLAG-HMK-IL-2Rβ chain containing only the proline rich C-terminal (protein)
chain: QPLSGEDDAYCTFPSRDDLLLFSPSLLGGPSPPSTAPGGSGAGEERMPPSLQERVPRDWDPQPLGPPTPGVPDLVDFQPPPELVLREAGEEVPDAGPREGVSFPWSRPPGQGEFRALNARLPLNTDAYLSLQELQGQDPTHLV
modifications: left off: small tags and cut ends
notes: FLAG-HMK-IL-2Rβ chain containing only the proline rich C-terminal
level of (His)6-Mek-1 kinase phosphorylation [1]: Background levels
serine/threonine kinase activity, phosphorylation of p70 protein [1]: no phosphorylated band p70

binding of Raf-1 proteins ((His)6-Raf-1 [3]; anti-Raf-1 immunoblot): bind Raf-1 proteins equally well
B3: FLAG-HMK-IL-2Rβ chain WT: bacterially produced fusion protein: FLAG epitope, HMK site and wild type IL-2Rβ chain cytoplasmic domain (protein)
chain: NCRNTGPWLKKVLKCNTPDPSKFFSQLSSEHGGDVQKWLSSPFPSSSFSPGGLAPEISPLEVLERDKVTQLLLQQDKVPEPASLSSNHSLTSCFTNQGYFFFHLPDALEIEACQVYFTYDPYSEEDPDEGVAGAPTGSSPQPLQPLSGEDDAYCTFPSRDDLLLFSPSLLGGPSPPSTAPGGSGAGEERMPPSLQERVPRDWDPQPLGPPTPGVPDLVDFQPPPELVLREAGEEVPDAGPREGVSFPWSRPPGQGEFRALNARLPLNTDAYLSLQELQGQDPTHLV
modifications: left off: small tags and cut ends
level of (His)6-Mek-1 kinase phosphorylation [1]: increase
serine/threonine kinase activity, phosphorylation of p70 protein [1]: bind T-cell derived protein(s) expressing serine/threonine kinase activity
binding of T-cell derived Raf-1 proteins [2]: bind T-cell derived Raf-1 proteins equally well
induction of kinase activity toward Mek-1 kinase ((His)6-Raf-1 [4]): did not result in the induction of kinase activity

decrease of Raf-1 binding in comparison to WT control [2]: 50-80
amount of Raf-1 proteins bound, % of the positive control value (Raf-1 binding to FLAG-HMK-IL-2Rβ chain WT) ((His)6-Raf-1 [3]): 17-50%
B4: FLAG-HMK-IL-2Rβ chain mutant A-: FLAG-HMK-IL-2Rβ chain mutant lacking the acidic domain (protein)
chain: NCRNTGPWLKKVLKCNTPDPSKFFSQLSSEHGGDVQKWLSSPFPSSSFSPGGLAPEISPLEVLERDKVTQLLLQPLSGEDDAYCTFPSRDDLLLFSPSLLGGPSPPSTAPGGSGAGEERMPPSLQERVPRDWDPQPLGPPTPGVPDLVDFQPPPELVLREAGEEVPDAGPREGVSFPWSRPPGQGEFRALNARLPLNTDAYLSLQELQGQDPTHLV
modifications: left off: small tags and cut ends
notes: FLAG-HMK-IL-2Rβ chain mutant lacking the acidic domain
level of (His)6-Mek-1 kinase phosphorylation [1]: Background levels
serine/threonine kinase activity, phosphorylation of p70 protein [1]: no phosphorylated band p70
